Legend:
[1] = biological target: the molecule itself; test: native gel or EMSA; clear native PAGE (6% or 8% Tris-glycine, 4 °C) of 30 μg mitochondrial extract, immunoblot with anti-TRAP1; cells also treated with hypoxia, oligomycin, rotenone, antimycin A or LDHi, or grown on different carbon sources
[2] = biological target: the molecule itself; test: affinity purification with mass spectrometry + native gel or EMSA; glutathione bead pull-down of TRAP1-GST from 1 mg mitochondrial lysate of transfected HEK293T cells, elution with 80 mM glutathione, 6% clear native gel, the stained complex band excised and analysed by LC/MS/MS; cutoff 11 unique peptides, GST alone as control
[3] = biological target: the molecule itself; test: native gel or EMSA; blue native PAGE (3-12%) of purified recombinant TRAP1 (20 and 5 ng), immunoblot with anti-TRAP1

B1: endogenous TRAP1 (natural protein, human (endogenous in HEK293T), UniProt Q12931 60-704, looked up)
chain: STQTAEDKEEPLHSIISSTESVQGSTSKHEFQAETKKLLDIVARSLYSEKEVFIRELISNASDALEKLRHKLVSDGQALPEMEIHLQTNAEKGTITIQDTGIGMTQEELVSNLGTIARSGSKAFLDALQNQAEASSKIIGQFGVGFYSAFMVADRVEVYSRSAAPGSLGYQWLSDGSGVFEIAEASGVRTGTKIIIHLKSDCKEFSSEARVRDVVTKYSNFVSFPLYLNGRRMNTLQAIWMMDPKDVREWQHEEFYRYVAQAHDKPRYTLHYKTDAPLNIRSIFYVPDMKPSMFDVSRELGSSVALYSRKVLIQTKATDILPKWLRFIRGVVDSEDIPLNLSRELLQESALIRKLRDVLQQRLIKFFIDQSKKDAEKYAKFFEDYGLFMREGIVTATEQEVKEDIAKLLRYESSALPSGQLTSLSEYASRMRAGTRNIYYLCAPNRHLAEHSPYYEAMKKKDTEVLFCFEQFDELTLLHLREFDKKKLISVETDIVVDHYKEEKFEDRSPAAECLSEKETEELMAWMRNVLGSRVTNVKVTLRLDTHPAMVTVLEMGAARHFLRMQQLAKTQEERAQLLQPTLEINPRHALIKKLNQLRASEPGLAQLLVDQIYENAMIAAGLVDDPRAMVGRLNELLVKALERH
notes: also called endogenous mitochondrial TRAP1; wild-type (WT) endogenous TRAP1; source: endogenous, mitochondrial extracts of HEK293T cells (also MCF-7, MDA-MB-134, PC3 and HCT116 cells)
- stoichiometry N [1]: 4

B2: TRAP1-GST fusion protein (natural protein, human, UniProt Q12931 60-704, looked up)
chain: STQTAEDKEEPLHSIISSTESVQGSTSKHEFQAETKKLLDIVARSLYSEKEVFIRELISNASDALEKLRHKLVSDGQALPEMEIHLQTNAEKGTITIQDTGIGMTQEELVSNLGTIARSGSKAFLDALQNQAEASSKIIGQFGVGFYSAFMVADRVEVYSRSAAPGSLGYQWLSDGSGVFEIAEASGVRTGTKIIIHLKSDCKEFSSEARVRDVVTKYSNFVSFPLYLNGRRMNTLQAIWMMDPKDVREWQHEEFYRYVAQAHDKPRYTLHYKTDAPLNIRSIFYVPDMKPSMFDVSRELGSSVALYSRKVLIQTKATDILPKWLRFIRGVVDSEDIPLNLSRELLQESALIRKLRDVLQQRLIKFFIDQSKKDAEKYAKFFEDYGLFMREGIVTATEQEVKEDIAKLLRYESSALPSGQLTSLSEYASRMRAGTRNIYYLCAPNRHLAEHSPYYEAMKKKDTEVLFCFEQFDELTLLHLREFDKKKLISVETDIVVDHYKEEKFEDRSPAAECLSEKETEELMAWMRNVLGSRVTNVKVTLRLDTHPAMVTVLEMGAARHFLRMQQLAKTQEERAQLLQPTLEINPRHALIKKLNQLRASEPGLAQLLVDQIYENAMIAAGLVDDPRAMVGRLNELLVKALERH
notes: TRAP1, human; the MTS is cleaved off upon import; Called one of the 'full-length TRAP1 proteins with different tags'; source: HEK293T, transfected, pulled down from mitochondrial lysate on glutathione beads and eluted with glutathione; not shown: GST, C-terminal, kept
- stoichiometry N [2]: 4

B3: recombinant human TRAP1 (natural protein, UniProt Q12931 60-704, looked up)
chain: STQTAEDKEEPLHSIISSTESVQGSTSKHEFQAETKKLLDIVARSLYSEKEVFIRELISNASDALEKLRHKLVSDGQALPEMEIHLQTNAEKGTITIQDTGIGMTQEELVSNLGTIARSGSKAFLDALQNQAEASSKIIGQFGVGFYSAFMVADRVEVYSRSAAPGSLGYQWLSDGSGVFEIAEASGVRTGTKIIIHLKSDCKEFSSEARVRDVVTKYSNFVSFPLYLNGRRMNTLQAIWMMDPKDVREWQHEEFYRYVAQAHDKPRYTLHYKTDAPLNIRSIFYVPDMKPSMFDVSRELGSSVALYSRKVLIQTKATDILPKWLRFIRGVVDSEDIPLNLSRELLQESALIRKLRDVLQQRLIKFFIDQSKKDAEKYAKFFEDYGLFMREGIVTATEQEVKEDIAKLLRYESSALPSGQLTSLSEYASRMRAGTRNIYYLCAPNRHLAEHSPYYEAMKKKDTEVLFCFEQFDELTLLHLREFDKKKLISVETDIVVDHYKEEKFEDRSPAAECLSEKETEELMAWMRNVLGSRVTNVKVTLRLDTHPAMVTVLEMGAARHFLRMQQLAKTQEERAQLLQPTLEINPRHALIKKLNQLRASEPGLAQLLVDQIYENAMIAAGLVDDPRAMVGRLNELLVKALERH
notes: TRAP1, human, recombinant; probably without the MTS (surmise); Same material used for blue native PAGE and cryo-EM; also called purified recombinant TRAP1
- stoichiometry N [3]: 4
